In the DeepSol protein solubility set:

assay: soluble on expression in E. coli; label from the status in PepcDB or PDB records

Sequence | soluble on expression in E. coli
MYETYHSGWIETITGSMFSGKSEELIRRLRRGIYAKQKVVVFKPAIDDRYHKEKVVSHNGNEIEAINISTAQEILNHKLEEVNVIGIDEVQFFEDDIVNIVEKLAENGHRVIVAGLDMDFRGEPFKPMPKLLAVSEHITKLQAVCSVCGSPSSRTQRLINGEPAKVDDPIILVGANESYEPRCRAHHIVAPSENEKEEMLEHHHHHH | not soluble
MGSDKIHHHHHHMVAMRIAIIGANGQLGTDLVEVFGNDPEFEVVPLTHKDLDVTIPESLKVLKEIKPDVLINTAAYVRVDDAELYPEKAFAVNAIGALNVARIANEIDAVNVYISTDYVFDGEKGEPYTEEDVPNPINVYGVSKYTGEIFTRNYSPKHYIIRVASLYGKAGASGKGGNFVEWVIEKAKHGEELKIVDDQFMSPTYTKDVARTLKEFLKLRSEFGVYHMVNEGFCSWYEFTEAIFDVLGWNVEIKPIKSNELNRLAKRPRFSALKNEKLEKIGLRMRHWREALEEYLKEKGYV | not soluble
SATFVSELEAAKKNLSEALGDNVKQYWANLKLWFKQKISKEEFDLEAHRLLTQDNVHSHNDFLLAILTRCQILVSTPDGAGSLPWPGGSAAKPGKPKGKKKLSSVRQKFDHRFQPQNPLSGAQQFVAKDPQDDDDLKLCSHTMMLPTRGQLEGRMIVTAYEHGLDNVTEEAVSAVVYAVENHLKDILTSVVSRRKAYRLRDGHFKYAFGSNVTPQPYLKNSVVAYNNLIESPPAFTAPCAGQNPASHPPPDDAEQQAALLLACSGDTLPASLPPVNMYDLFEALQVHREVIPTHTVYALNIERIITKLWHPNHEELQQDKVHRQRLAAKEGLLLC | soluble
MMSPRIGLTLQKIVETAAEIADANGVQEVTLASLAQTLGVRSPSLYNHVKGLQDVRKNLGIYGIKKLHNRLEEAAEDKRMDEAIHALGEAYVAFVRKHPGLYEATFLRDEEVRKAGDGIVKLCLQVLQQYGLEGENALHATRGFRSICHGFASIEQQGGFGLPLDLDISLHVLLETFIKGLRE | soluble
MKAAAREEAKNIKLLETTEEDKQKNFLFLRLWDRNMDIAMGWKGAQAMQFGQPLVFDMAYENYMKRKELQNTVSQLLESEGWNRRNVDPFHIYFCNLKIDGALHRELVKRYQEKWDKLLLTSTEKSHVDLFPKDSIIYLTADSPNVMTTFRHDKVYVIGSFVDKSMQPGTSLAKAKRLNLATECLPLDKYLQWEIGNKNLTLDQMIRILLCLKNNGNWQEALQFVPKRKHTGFLEISQHSQEFINRLKKAKT | not soluble
MGSDKIHHHHHHMNDLPLADLDAFATIARLRNFRAAGKLRGVSASSLSEAMRRLEARVGVRLLNRTTRSVTLTDAGARLLERLSPTLADIELALDDINQFRERPFGRLRLNVPGIVARCVLPPVVTGFLAAYPDILLEVTVNDALIDVLAEGCDAGIRYEEALHQDMIAVPIGPRRQRYVCVAAPSYLEQYGRPEHPRDLIHHRSILHRFNSGRVNEWHFEREGEAINVSPPPRLIAETVDLELAAVRAGLGMMGTFEDFVIEDLNAGRLERVLTDWEDEFSGPFLYYHSRRHMPVPLRVFVDYIRQHGDPG | not soluble
GPGSMRPNVMLTIPKNTLQVFDMGLDFRSYLSRVDVNGLPVLGNVVSYEASKLTEVFTPTVGLLVTILHMLAHCTSSCSAVAWLKAYDAIQKMYIENSEEENTEAVRYAVEARAAIKDYLTGDAVPGTNLLCEKLLTLLDQQSGIHGSQAPSQRKVPREPKGAFCNLHLSDQKCYQDFACNQLHLQEVKTVRHRKIFYMRLIEVLKAEKRSRQQIRHRIKDSVFFARYGNKVTVQCQGKWIPFFKTVYTDGRLEQALRTQHFACGDSACADENCLGIHPQDRRVTTSSKLMDLNNPDVVLQQIEEEAERHLSMEGAFNDHEAEHISAAASSSSMPSPTSEMWRNTVREYVRQTGIPQVEADESLLRTLQDANVLATPTASTESLTPLLDELDMRTFSSSSPVREHPNAEIG | not soluble
MSLDWDSVHVPGPHAMTIQELVDYVNARQKQGIYEEYEDIRRENPVGTFHCSMSPGNLEKNRYGDVPCLDQTRVKLTKRSGHTQTDYINASFMDGYKQKNAYIGTQGPLENTYRDFWLMVWEQKVLVIVMTTRFEEGGRRKCGQYWPLEKDSRIRFGFLTVTNLGVENMNHYKKTTLEIHNTEERQKRQVTHFQFLSWPDYGVPSSAASLIDFLRVVRNQQSLAVSNMGARSKGQCPEPPIVVHCSAGIGRTGTFCSLDICLAQLEELGTLNVFQTVSRMRTQRAFSIQTPEQYYFCYKAILEFAEKEGMVSSGQNLLAVESQEGHHHHHH | soluble
GPDFNWTSVLNLTHNRNKIVALDGDIKQSVEGSWFIHKIGLPYNSFYVKEFAGVDPSTGKGLYYLNTQDEKGNYNREMTDDASKAQAIPYKSADPKISGGFTNILSYKWFDLGLTFTYSLGGYSFDKTGTLIETDGSKEKSYNLPVYALDRWQKPGDRTDVPRFVLEQGAGPQNSSRYIHSTDHIRLKNLTLGFTLPGRWVQKALIENARVYFSGSNLLTWAKWKQYDPEVPVNGEVFCEAPPMRTFNFGVEITF | not soluble
MGSDKIHHHHHHMVRVRFAPSPTGFLHVGGARTALFNFLFARKEKGKFILRIEDTDLERSEREYEEKLMESLRWLGLLWDEGPDVGGDHGPYRQSERVEIYREHAERLVKEGKAYYVYAYPEEIEEMREKLLSEGKAPHYSQEMFEKFDTPERRREYEEKGLRPAVFFKMPRKDYVLNDVVKGEVVFKTGAIGDFVIMRSNGLPTYNFACVVDDMLMEITHVIRGDDHLSNTLRQLALYEAFEKAPPVFAHVSTILGPDGKKLSKRHGATSVEAFRDMGYLPEALVNYLALLGWSHPEGKELLTLEELISSFSLDRLSPNPAIFDPQKLKWMNGYYLRNMPIEKLAELAKPFFEKAGIKIIDEEYFKKVLEITKERVEVLSEFPEESRFFFEDPAPVEIPEEMKEVFSQLKEELQNVRWTMEEITPVFKKVLKQHGVKPKEFYMTLRRVLTGREEGPELVNIIPLLGKEIFLRRIERSLGG | soluble
GSHGGSMKAANASSAEAYRVLSRAFRFDNEDQKLWWHSTAPMFAKMLETANYTTPCQYQYLITYKECVIPSLGCYPTNSAPRWLSILTRYGTPFELSLNCSNSIVRYTFEPINQHTGTDKDPFNTHAIWESLQHLLPLEKSIDLEWFRHFKHDLTLNSEESAFLAHNDRLVGGTIRTQNKLALDLKDGRFALKTYIYPALKAVVTGKTIHELVFGSVRRLAVREPRILPPLNMLEEYIRSRGSKSTASPRLVSCDLTSPAKSRIKIYLLEQMVSLEAMEDLWTLGGRRRDASTLEGLSLVRELWDLIQLSPGLKSYPAPYLPLGVIPDERLPLMANFTLHQNDPVPEPQVYFTTFGMNDMAVADALTTFFERRGWSEMARTYETTLKSYYPHADHDKLNYLHAYISFSYRDRTPYLSVYLQSFETGDWAVANLSESKVKCQDAACQPTALPPDLSKTGVYYSGLH | soluble
NADAQTKLQIIDLKTRLRLALPNLPGGDLRGVNFSADASQLVFYINSDTSPSNLYVHKLGSTGVKRLTNTGNPNILEDNLVEGEVVRFKSFDGLDIPGILYKPKQAEFNKVPALVFIHGGPGGQSRKGYSALVQHLVNNGYAIFKVNNRGSSGYGKTFFHLDDKKHGDHDLKDVVYNKYYLQSLDWVDKDRIGVIGGSYGGYLTMAAMAFTDEFQAGVNIFGVTNWVRTLESIPPYWEAFRKSLYDELGDPNTDKERLHNISPVFFGHQIKKPVLVVQGKNDPRVLKIESDEMVDSIRSGGTYVDYLVFDDEGHGFSKKANRIEASNKYLNFFKTQL | not soluble
MKHLSPERLHVTQTAGITQLSPVNGRLYTLTHSDTTGALFLTVSRAFVTDQLTSQRDEVLGEWKQAGQQLVLFLYVFIGNRQMGRQENARRANVFKKELPLALEAIRYGDRAFFHTYPFCDWCPIFIHFTSEYPELNRTEYYGTPYLYR | not soluble
MAKKLSKKGDIQRDHFALISSFPLNQTPETKSEKLQKNLLLHKYYQGHRERLRRRYLKSKGNAIEDYEYLELLLFRTIPRANTKPIAKSLIAHFGSLADVLGADIHRLQEVQGCGPATALDLKIISDVAGRLARAQLFKRDIFSSWDQVLAYCKAVMAHETREQFRVLFLDKKNGLLADEVQQTGTIDHTPVYPREVISRALQLSASGLILVHNHPSGDATPSKADVTMTYRLKDAANALGITVHDHLIIARNNYTSFKELKFI | not soluble
MVDSYDDSLDGEKSKTQVKRELHALVDLGERLTTLKADVLAKLPLTDALRKALAEAPKHTANIARKRHILFIGKLMRDQDQEAILVLLDQLDASTRQYNERFHNLERWRDRLIAGDDADLEKFVIEYPDADRQQLRSLIRQAQHEVARNKPPATSRKIFKYIRELDELQ | soluble
MGSDKIHHHHHHMAGSAGGLSASDGDFFLCDLFDPVPKGDLGTMEHPVFSLATRPDRRILTYEHNGVEITVTPSVKGRATIFDKDILIFCTSQLMAAINANRPVSRTLQLTAHDLLLATGRDRSGDGYKRLRAAFERLAGTRITTNLITGGVEVTQGFGLIEAWQIVRRTRNGRMVSVSVTLSEWLYRAALTKSVLTLSRQYFRMRKPLERRIYELARKHCGRQNEWRVSVDTLLKKSGSASPRRVFRAMLREMIAADALPDYHLQEEPGDILRVTLRDAVIEAAGRPIVSSDTLNQARALMPGWDVYVLEAEWRNWWAATGRPHLRSPDKAFLGWVRTQAARA | not soluble
MEYYFTAQKLAVGYDNRPLIENIDFSLKRGEILTLIGPNGAGKSTILKSIARQLSLVSGTIYLDKSDVVTMNGNEFAKKMAVVLTDKLKTELMTCYDVVATGRYPYTGRFGVLSDEDKKAVDEAMELVNVSQIKDKDFTKISDGQRQRVMLSRAICQQPEIIVLDEPTSYLDIKYKLEFLSILQRLKRQKNLTVIMSLHELDMAKRVSDHILCIDGRYVDRYGTPEEVFTDQYVSGLFGITAGSLEHHHHHH | not soluble
GRYEIRFSGAGGQGLILAGVIMAEAASIYDGKQAVQSQSYGPEARGGASKSEVIISDGPVDYPKATQCDALLALTQEACDKYSADLKEGGVLLVDSDLVTKLPPGNYQTTAFNIINTAKNDVGREIVANIVALGAMVALTGVVSKEAAEKAVLSRVPEAFVELNRKAFQMGFEKALAAKK | soluble
MSLIPVVLSGGAGTRLWPVSREGQPKPFMRLPDGQTLLGKTYRRAAGLLAGHGEIVTVTNREHYFQSKDQFHAARLGRHRGHFILEPTGRNTAPAIAVAALGLQAEHGDAAVLVVMPADHLIRNEEAFREAVGHAARLAVAGHLVTFGVVPDAAETGFGYIELGDRLDEQGAAKVRRFVEKPDEETRRRYVESGGFLWNSGMFCFTASTLVDELAQHAPALLEQARACLAASAAVKMADGIQHELAGEGFAALPDISIDYALMERSARVAVVPAAFDWSDIGSWGAMSALLDADAEGNRGSGDTLFVDTRNTFVQSDGRLVATVGVDDLVVVDTSDALLIARADRVQEVRRVVQRLKDERHEAYRLHRTVNRPWGSYTVLEEGPRFKIKRIVVRPGERLSLQMHHHRSEHWIVVQGMARVTNGDGARLVNSNESTYIPAGHRHRLENPGVIDLVMIEVQSGEYLGEDDIVRFEDQYGREGHHHHHH | not soluble
MKLRSWEFYDRIARAYDSMYETPKWKLYHRLIGSFLEEYLKNPCRVLDLGGGTGKWSLFLQERGFEVVLVDPSKEMLEVAREKGVKNVVEAKAEDLPFPSGAFEAVLALGDVLSYVENKDKAFSEIRRVLVPDGLLIATVDNFYTFLQQMIEKDAWDQITRFLKTQTTSVGTTLFSFNSYAFKPEDLDSLEGFETVDIRGIGVMEYPDERISEREETIFRLEQELSRDRNIIWKADHIFFVLKKKRGA | not soluble
MGSDKIHHHHHHMNELTKQLQEIMVPKAALIAYEYQEGHYASGSHYLELRPINKKGRMEAGIPVTYEFMDSLVESYSDGNRRIPHGWLPPNMLWCDTRRGHESYVWYNPPGKRRMFFKNDLNIGDGMFHVPGVIYIIKNERMDIFAYKGKKPDGRTPLYLAPFFNVTGGNVCLGNSTLEKPESLDFHTLLEYWEKRFWLSEFSHLGGGKNPTRNNLVLVTERMREQPFDNDELQPINKRLKDILP | not soluble
